B1: DNA polymerase delta subunit 4 (Homo sapiens), Q9HCU8 (parent)
chain: MGRKRLITDSYPVVKRREGPAGHSKGELAPELGEEPQPRDEEEAELELLRQFDLAWQYGPCTGITRLQRWCRAKQMGLEPPPEVWQVLKTHPGDPRFQCSLWHLYPL

Variants of: B1
Details: with pcna_human PCNA

Question: How did the “effect of a mutation on the interaction” value turn out when MGRKRLATDAAPVVKRREGPAGHSKGELAPELGEEPQPRDEEEAELELLRQFDLAWQYGPCTGITRLQRWCRAKQMGLEPPPEVWQVLKTHPGDPRFQCSLWHLYPL was run?
Answer: The value was “disrupting interaction”.
